The record followed here is publication PMC6591306.

Experiment in all cases: cysteine cross-linking, non-reducing SDS-PAGE, quantification of fluorescent blots
In one test the target is GB2^5.45. Particulars: + CuP; cell surface SNAP-GB1 labelled with fluorescent SNAP substrate; no ligand; parent: est. 2; read off a plot.
For a further test, the target named is GB2^5.40. Particulars: + CuP; cell surface SNAP-GB1 labelled with fluorescent SNAP substrate; no ligand; parent: est. 2; read off a plot.
Test [1] concerns the target GB1 double cysteine mutant with one cysteine in TM5 and one in TM1 (co-expressed with a non-mutated GB2). The settings on record: + CuP, co-expressed with GB2Ctr, parent: est. 2, read off a plot.
The target of test [2] is GB1 double cysteine mutant with one cysteine in TM4 and one in TM7 (co-expressed with a non-mutated GB2). The settings on record: + CuP, co-expressed with GB2Ctr, parent: est. 2, read off a plot.
A further test addresses GB2^5.41. The settings on record: + CuP; cell surface SNAP-GB1 labelled with fluorescent SNAP substrate; no ligand; parent: est. 2; read off a plot.
Test [3] deals with GB2^5.42 (cysteine mutant of GB2^Ctr at position 5.42) (UniProt O88871). The settings on record: + CuP; cell surface SNAP-GB1 labelled with fluorescent SNAP substrate; no ligand; parent: est. 2; read off a plot.
Another test deals with GB1 4.52/6.55. Particulars: + CuP, co-expressed with GB2Ctr, parent: est. 2, read off a plot.
Another test addresses GB1 1.45/6.55. Particulars: + CuP, co-expressed with GB2Ctr, parent: est. 2, read off a plot.
The target of another test is GB2^6.55. The settings on record: + CuP; cell surface SNAP-GB1 labelled with fluorescent SNAP substrate; no ligand; parent: est. 2; read off a plot.
In another test the target is GB2^6.54. Particulars: + CuP; cell surface SNAP-GB1 labelled with fluorescent SNAP substrate; no ligand; parent: est. 2; read off a plot.
Test [4] deals with double mutant of GB1 carrying one cysteine in TM5 (I771C^5.42) and one in TM7 (L838C^7.34). The settings on record: + CuP, co-expressed with GB2Ctr, parent: est. 2, read off a plot.
In test [5] the target is GB1 double cysteine mutant with one cysteine in TM4 and one in TM1 (co-expressed with a non-mutated GB2). Particulars: + CuP, co-expressed with GB2Ctr, parent: est. 2, read off a plot.
Test [6] has as its target GB2 L711C^6.59 (in GB2^Ctr) (UniProt O88871). The settings on record: + CuP; cell surface SNAP-GB1 labelled with fluorescent SNAP substrate; no ligand; parent: est. 2; read off a plot.

For m1; m2 GB1:5.45 Cys; GB2:5.45 Cys, in the test with GB2^5.45, the other: Change of GB1-GB2 dimer cross-linking (%) worked out at 24%. For the substance m1; m2 GB1:5.40 Cys; GB2:5.40 Cys, the other: Change of GB1-GB2 dimer cross-linking (%) in the test with GB2^5.40 came to 12%.

On to “GB1^Ctr (control GABAB1 subunit: SNAP-tagged rat GB1a truncated in the C-terminal region) 1.45 Cys; I771C”, for which the other: Oligomer (% total GB1) in test [1] (+ GABA 100 μM) was determined as 12 % total GB1; in test [1] (no agonist) it was 5 % total GB1. With “GB1^Ctr (control GABAB1 subunit: SNAP-tagged rat GB1a truncated in the C-terminal region) 4.52 Cys; L838C”, the other: Oligomer (% total GB1) in test [2] (+ GABA 100 μM) is 12 % total GB1; in test [2] (no agonist) it was 7 % total GB1.

As for m1; m2 GB1:5.41 Cys; GB2:5.41 Cys, the other: Change of GB1-GB2 dimer cross-linking (%) in the test with GB2^5.41 was 28%.

As to m1; m2 GB1:I771C; GB2:5.42 Cys, in [3], the other: Change of GB1-GB2 dimer cross-linking (%) came to 14%.

Consider “GB1^Ctr (control GABAB1 subunit: SNAP-tagged rat GB1a truncated in the C-terminal region) 4.52 Cys; 6.55 Cys”, for which the other: Oligomer (% total GB1) with GB1 4.52/6.55 (+ GABA 100 μM) was determined as 21 % total GB1; with GB1 4.52/6.55 (no agonist), 16 % total GB1. Consider “GB1^Ctr (control GABAB1 subunit: SNAP-tagged rat GB1a truncated in the C-terminal region) 1.45 Cys; 6.55 Cys”, for which the other: Oligomer (% total GB1) in the test with GB1 1.45/6.55 (+ GABA 100 μM) was 4 % total GB1; with GB1 1.45/6.55 (no agonist), 2.5 % total GB1. In the case of m1; m2 GB1:6.55 Cys; GB2:6.55 Cys, the other: Change of GB1-GB2 dimer cross-linking (%) in the test with GB2^6.55 was 32%.

For the substance m1; m2 GB1:6.54 Cys; GB2:6.54 Cys, the other: Change of GB1-GB2 dimer cross-linking (%) with GB2^6.54 was determined as 23%. With “GB1^Ctr (control GABAB1 subunit: SNAP-tagged rat GB1a truncated in the C-terminal region) I771C; L838C”, the other: Oligomer (% total GB1) in [4] (+ GABA 100 μM) came to 2.5 % total GB1; in test [4] (no agonist), 1 % total GB1. Turning to “GB1^Ctr (control GABAB1 subunit: SNAP-tagged rat GB1a truncated in the C-terminal region) 1.45 Cys; 4.52 Cys”, the other: Oligomer (% total GB1) came to 32 % total GB1 in [5] (+ GABA 100 μM) and 24 % total GB1 in test [5] (no agonist). As for m1; m2 GB1:I824C; GB2:L711C, the other: Change of GB1-GB2 dimer cross-linking (%) in [6] was 28%.
